{"source": "IntAct's records for PubMed 18354501", "key": {"t2ea_human GTF2E1 [1]": {"molecular_target": "t2ea_human GTF2E1 (UniProt P29083)", "sequence (P29083 whole entry)": "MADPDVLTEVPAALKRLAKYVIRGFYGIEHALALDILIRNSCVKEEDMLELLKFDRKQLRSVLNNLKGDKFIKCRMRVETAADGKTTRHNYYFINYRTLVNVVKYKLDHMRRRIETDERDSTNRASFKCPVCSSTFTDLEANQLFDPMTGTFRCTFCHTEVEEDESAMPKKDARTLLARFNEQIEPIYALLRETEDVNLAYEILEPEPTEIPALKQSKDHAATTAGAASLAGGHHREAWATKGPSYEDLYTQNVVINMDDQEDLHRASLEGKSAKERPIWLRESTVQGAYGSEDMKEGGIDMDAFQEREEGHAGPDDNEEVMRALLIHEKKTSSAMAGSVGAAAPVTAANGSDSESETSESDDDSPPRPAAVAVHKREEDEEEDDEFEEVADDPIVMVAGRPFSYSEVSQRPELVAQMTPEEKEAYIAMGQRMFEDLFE"}, "t2ea_human GTF2E1 [2]": {"molecular_target": "t2ea_human GTF2E1 (UniProt P29083)", "remark": "listed apart in the source"}, "t2ea_human GTF2E1 [3]": {"molecular_target": "t2ea_human GTF2E1 (UniProt P29083)", "remark": "listed apart in the source"}, "t2ea_human GTF2E1 [4]": {"molecular_target": "t2ea_human GTF2E1 (UniProt P29083)", "remark": "listed apart in the source"}, "t2ea_human GTF2E1 [5]": {"molecular_target": "t2ea_human GTF2E1 (UniProt P29083)", "remark": "listed apart in the source"}, "t2ea_human GTF2E1 [6]": {"molecular_target": "t2ea_human GTF2E1 (UniProt P29083)", "remark": "listed apart in the source"}}}
{"substance": "General transcription factor IIH subunit 1 (Homo sapiens), P32780 Q66A", "values": [{"measurement": "effect of a mutation on the interaction", "setting": "t2ea_human GTF2E1 [1]", "result": "disrupting interaction"}, {"measurement": "effect of a mutation on the interaction", "setting": "t2ea_human GTF2E1 [2]", "result": "decreasing interaction"}]}
{"substance": "General transcription factor IIH subunit 1 (Homo sapiens), P32780 V68A", "values": [{"measurement": "effect of a mutation on the interaction", "setting": "t2ea_human GTF2E1 [3]", "result": "decreasing interaction"}]}
{"substance": "General transcription factor IIH subunit 1 (Homo sapiens), P32780 K19A", "values": [{"measurement": "effect of a mutation on the interaction", "setting": "t2ea_human GTF2E1 [4]", "result": "disrupting interaction"}]}
{"substance": "General transcription factor IIH subunit 1 (Homo sapiens), P32780 K18A", "values": [{"measurement": "effect of a mutation on the interaction", "setting": "t2ea_human GTF2E1 [5]", "result": "decreasing interaction"}]}
{"substance": "General transcription factor IIH subunit 1 (Homo sapiens), P32780 K54A", "values": [{"measurement": "effect of a mutation on the interaction", "setting": "t2ea_human GTF2E1 [6]", "result": "disrupting interaction"}]}
